Data published in US20160083465A1 (AVEO PHARMACEUTICALS, published 2016).

T1: 6xHis tagged recombinant human GDF15 (His-rhGDF15) (human, UniProt Q99988 197-308)
T1 construct: Bought from R&D Systems
T1 sequence: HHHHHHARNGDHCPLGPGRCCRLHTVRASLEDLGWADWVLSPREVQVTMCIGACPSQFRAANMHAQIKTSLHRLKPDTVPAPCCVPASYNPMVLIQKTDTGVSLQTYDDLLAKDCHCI

T2: untagged recombinant human GDF15 (rhGDF15 (Peprotech)) (human, UniProt Q99988 197-308, limits assumed)
T2 construct: Bought from Peprotech
T2 sequence (looked up): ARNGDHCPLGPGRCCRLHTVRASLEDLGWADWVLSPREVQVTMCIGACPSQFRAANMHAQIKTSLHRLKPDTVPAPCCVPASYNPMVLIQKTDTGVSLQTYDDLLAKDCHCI

T3: mouse IgG1 Fc-mature human GDF15 fusion protein (mFc-rhGDF15) (mouse; human)
T3 construct: Made in CHOK1SV cells, purified by Protein A and size exclusion; also called mouse Fc fused to human GDF15
T3 chain: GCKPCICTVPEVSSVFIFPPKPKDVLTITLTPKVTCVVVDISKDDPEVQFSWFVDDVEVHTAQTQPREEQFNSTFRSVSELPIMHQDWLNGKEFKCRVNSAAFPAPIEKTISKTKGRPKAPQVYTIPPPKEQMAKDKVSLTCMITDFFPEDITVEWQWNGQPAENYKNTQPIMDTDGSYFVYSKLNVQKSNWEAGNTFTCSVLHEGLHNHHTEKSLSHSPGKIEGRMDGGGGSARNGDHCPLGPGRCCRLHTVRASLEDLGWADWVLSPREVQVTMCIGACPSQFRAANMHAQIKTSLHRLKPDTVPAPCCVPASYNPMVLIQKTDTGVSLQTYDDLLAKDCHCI

T4: cleaved-rhGDF15 (human, UniProt Q99988 197-308)
T4 sequence: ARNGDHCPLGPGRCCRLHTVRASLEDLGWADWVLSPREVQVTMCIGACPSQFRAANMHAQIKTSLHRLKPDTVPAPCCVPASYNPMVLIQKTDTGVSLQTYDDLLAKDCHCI


Key:
Experiment in all cases: SPR Biacore T100, 37 C, antibody captured by anti-mouse IgG, antigen in solution
[1] = target: T1, 6xHis tagged recombinant human GDF15 …
Procedure: (§1) Rabbit anti-mouse IgGs (GE Healthcare) were immobilized on carboxymethylated dextran CM4 sensor chips (GE Healthcare) by amine coupling, according to a standard protocol. Analyses were performed at 37° C. using PBS containing 0.05% surfactant P20 as running buffer. The antibodies were captured in individual flow cells at a flow rate of 10 μL/minute. Injection time was varied for each antibody to yield an Rmax between 30 and 60 RU. 250 μg/mL mouse Fc (Jackson ImmunoResearch, West Grove, Pa.) was injected at 30 μL/minute for 120 seconds to block non-specific binding of capture antibodies to mouse Fc portion of the recombinant GDF15 protein when needed. […] The dissociation phase was monitored for up to 1500 seconds. The surface was then regenerated with two 60-second injections of 10 mM Glycine-HCl, pH 1.7, at a flow rate of 30 μL/minute.
(§2) Kinetic parameters were determined using the kinetic function of the BIAevaluation software (GE Healthcare) with double reference subtraction.

[2] = target: T2, untagged recombinant human GDF15 …
Procedure: as §1, §2

[3] = target: T3, mouse IgG1 Fc-mature human GDF15 fusion …
Procedure: as §1, §2

cleaved-rhGDF15 = target: T4, cleaved-rhGDF15
Procedure: as §1, §2

Kd [1] [nM] | koff [1] [s⁻¹] | kon [1] [M⁻¹ s⁻¹] | Kd [2] [nM] | koff [2] [s⁻¹] | kon [2] [M⁻¹ s⁻¹] | Kd [3] [nM] | koff [3] [s⁻¹] | kon [3] [M⁻¹ s⁻¹] | Kd (cleaved-rhGDF15) [nM] | koff (cleaved-rhGDF15) [s⁻¹] | kon (cleaved-rhGDF15) [M⁻¹ s⁻¹] | Binder
0.051 | 0.0015 | 2.9e+07 | 0.21 | 0.0046 | 2.2e+07 | 0.17 | 0.00068 | 4.5e+06 | 0.17 | 0.002 | 1.2e+07 | 06C11 (antibody, mouse IgG1, kappa, Murine monoclonal from hybridoma, IgG1 kappa; also called antibody 06C11) heavy: QVTLKESGPGILQPSQTLSLTCSFSGFSLNTYGMGVSWIRQPSGKGLEWLAHIYWDDDKRYNPSLKSRLTISKDASNNRVFLKITSVDTADTATYYCAQRGYDDYWGYWGQGTLVTISAAKTTPPSVYPLAPGSAAQTNSMVTLGCLVKGYFPEPVTVTWNSGSLSSGVHTFPAVLQSDLYTLSSSVTVPSSTWPSETVTCNVAHPASSTKVDKKIVPRDCGCKPCICTVPEVSSVFIFPPKPKDVLTITLTPKVTCVVVDISKDDPEVQFSWFVDDVEVHTAQTQPREEQFNSTFRSVSELPIMHQDWLNGKEFKCRVNSAAFPAPIEKTISKTKGRPKAPQVYTIPPPKEQMAKDKVSLTCMITDFFPEDITVEWQWNGQPAENYKNTQPIMDTDGSYFVYSKLNVQKSNWEAGNTFTCSVLHEGLHNHHTEKSLSHSPGK light: DIVMTQSQKFMSTSVGDRVSVTCKASQNVGTNVAWFQQKPGQSPKALIYSASYRYSGVPDRFTGSGSGTDFILTISNVQSEDLAEYFCQQYNNYPLTFGAGTKLELKRADAAPTVSIFPPSSEQLTSGGASVVCFLNNFYPKDINVKWKIDGSERQNGVLNSWTDQDSKDSTYSMSSTLTLTKDEYERHNSYTCEATHKTSTSPIVKSFNRNEC
0.096 | 0.00042 | 4.4e+06 | 0.071 | 0.0022 | 3.1e+07 | 0.22 | 0.00033 | 1.7e+06 | 0.11 | 0.0006 | 5.7e+06 | 14F11 (antibody, mouse IgG1, kappa, Murine monoclonal from hybridoma, IgG1 kappa; also called antibody 14F11) heavy: QVTLKESGPGILQPSQTLSLTCSFSGFSLSTYGMGVGWIRQPSGKGLEWLADIWWDDDKYYNPSLKSRLTISKDTSSNEVFLKIAIVDTADTATYYCARRGHYSAMDYWGQGTSVTVSSAKTTPPSVYPLAPGSAAQTNSMVTLGCLVKGYFPEPVTVTWNSGSLSSGVHTFPAVLQSDLYTLSSSVTVPSSTWPSETVTCNVAHPASSTKVDKKIVPRDCGCKPCICTVPEVSSVFIFPPKPKDVLTITLTPKVTCVVVDISKDDPEVQFSWFVDDVEVHTAQTQPREEQFNSTFRSVSELPIMHQDWLNGKEFKCRVNSAAFPAPIEKTISKTKGRPKAPQVYTIPPPKEQMAKDKVSLTCMITDFFPEDITVEWQWNGQPAENYKNTQPIMDTDGSYFVYSKLNVQKSNWEAGNTFTCSVLHEGLHNHHTEKSLSHSPGK light: DIVMTQSQKFMSTSVGDRVSVTCKASQNVGTNVAWYQQKPGQSPKALIYSPSYRYSGVPDRFTGSGSGTDFTLTISNVQSEDLAEYFCQQYNSYPHTFGGGTKLEMKRADAAPTVSIFPPSSEQLTSGGASVVCFLNNFYPKDINVKWKIDGSERQNGVLNSWTDQDSKDSTYSMSSTLTLTKDEYERHNSYTCEATHKTSTSPIVKSFNRNEC
0.081 | 0.0011 | 1.4e+07 | 0.093 | 0.0019 | 2.1e+07 | 0.21 | 0.0007 | 5.6e+06 | 0.11 | 0.00086 | 7.5e+06 | 01G06 (antibody, mouse IgG1, kappa, Murine monoclonal from hybridoma, IgG1 kappa; also called antibody 01G06) heavy: EVLLQQSGPELVKPGASVKIPCKASGYTFTDYNMDWVKQSHGKSLEWIGQINPNNGGIFFNQKFKGKATLTVDKSSNTAFMEVRSLTSEDTAVYYCAREAITTVGAMDYWGQGTSVTVSSAKTTPPSVYPLAPGSAAQTNSMVTLGCLVKGYFPEPVTVTWNSGSLSSGVHTFPAVLQSDLYTLSSSVTVPSSTWPSETVTCNVAHPASSTKVDKKIVPRDCGCKPCICTVPEVSSVFIFPPKPKDVLTITLTPKVTCVVVDISKDDPEVQFSWFVDDVEVHTAQTQPREEQFNSTFRSVSELPIMHQDWLNGKEFKCRVNSAAFPAPIEKTISKTKGRPKAPQVYTIPPPKEQMAKDKVSLTCMITDFFPEDITVEWQWNGQPAENYKNTQPIMDTDGSYFVYSKLNVQKSNWEAGNTFTCSVLHEGLHNHHTEKSLSHSPGK light: DIQMTQSPASLSASVGETVTITCRTSENLHNYLAWYQQKQGKSPQLLVYDAKTLADGVPSRFSGSGSGTQYSLKINSLQPEDFGSYYCQHFWSSPYTFGGGTKLEIKRADAAPTVSIFPPSSEQLTSGGASVVCFLNNFYPKDINVKWKIDGSERQNGVLNSWTDQDSKDSTYSMSSTLTLTKDEYERHNSYTCEATHKTSTSPIVKSFNRNEC
